# In patent US20150344535A1, “NEUROTROPHIN-TYROSINE KINASE RECEPTOR SIGNALING” (THE UNIVERSITY OF QUEENSLAND, priority 2012, published 2015):
# Key:
# p75^FL = target: T1, p75^FL (Rattus norvegicus, UniProt P07174); assay: NGF-FITC binding by flow cytometry, p75^FL-transfected HEK293 cells
# T1 construct: p75^FL—full-length p75^NTR; expressed in transfected cells; host or cells: HEK293
# T1 sequence (P07174 30-425): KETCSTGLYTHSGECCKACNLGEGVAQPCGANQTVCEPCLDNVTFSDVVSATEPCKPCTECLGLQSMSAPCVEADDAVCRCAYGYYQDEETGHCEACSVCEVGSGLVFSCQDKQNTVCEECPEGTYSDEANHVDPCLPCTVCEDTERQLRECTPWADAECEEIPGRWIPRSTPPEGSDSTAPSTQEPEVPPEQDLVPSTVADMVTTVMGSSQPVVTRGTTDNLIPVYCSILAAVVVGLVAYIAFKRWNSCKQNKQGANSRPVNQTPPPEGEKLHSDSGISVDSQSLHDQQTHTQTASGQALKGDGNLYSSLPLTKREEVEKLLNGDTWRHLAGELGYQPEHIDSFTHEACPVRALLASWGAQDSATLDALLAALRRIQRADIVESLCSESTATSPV
# Description: The NGF was conjugated to FITC by standard methods and detailed flow cytometry acquisition and analysis. For NGF-FITC conjugation 400 μg βNGF in 200 μl pH 8.5 NaHCO3 buffer was mixed with 5-10 μl of 10 mg/ml FITC in 100 μl DMSO for 10 hours at 4° C. on an orbital shaker set to 100 rpm. The excess FITC was removed by dialysis against 3 changes of 5 L of 10 mM Tris, 150 mM NaCl, 0.2% acetic acid, pH 8.2 for 24 hours at 4° C. Conjugate F/P characterization was determined by measuring absorbance at 280 nm and 495 nm according to manufacturer's instructions. Biological activity of the NGF-FITC conjugate was tested by performing PC12 cell neurite outgrowth assays unlabelled NGF, and comparing the levels of neuritogenesis. NGF-FITC conjugates were used within 4 weeks of synthesis.
# For the flow cytometry NGF binding assays, fluorescence cell parameters of at least 20,000 events for PC12 cells and 100,000 events for HEK293 cells were acquired by flow cytometry list mode and measurements were performed on a single cell basis (with compensation for double event counting). Dead cells and debris were gated out of the analysis on the basis of forward scatter fluorescence, and mean, median and maximal fluorescence values of the gated cell populations were analysed using FACS Diva Software (Becton-Dickinson Biosciences) and FACS Express Software (Becton-Dickinson Biosciences).
# Background fluorescence of HEK293 cells was non-transfected cells (±c29 or scrambled peptide treatment) treated with 26 nM NGF-FITC. For PC12 cells, the control population was cells that had not been treated with NGF-FITC. Analysis of real-time NGF-FITC receptor binding experiments was performed on 550,000-600,000 cells at 4° C. in serum free NB medium and binding kinetics were calculated from raw data files compressed to 50,000 binding events using FlowJo and MatLab Software. Data was plotted with the use of GraphPad Prism.
# Only NGF-FITC preparations that promoted equivalent neurite outgrowth of PC12 cells to that of unlabelled NGF were used in binding experiments. To investigate NGF binding, PC12 or transfected HEK293 cells were serum starved for 4 hours, harvested, washed with Dulbecco's Modified Eagle Medium (DMEM), and counted. When used, c29 or scrambled peptide were added to cultures for the third hour of the serum starvation procedure. 1×10^7 cells/ml suspended in 500 μl of serum-free DMEM were incubated with 26 nM NGF-FITC on ice for 60 minutes before analysis. For binding competition assays, following 1 hour in NGF-FITC, cells were washed with ice-cold PBS containing 0.1% normal bovine serum and incubated on ice with unlabeled NGF at concentrations ranging from 100 pM to 10 μM for 30 minutes, then washed twice in PBS before being analysed on a BD Flow Cytometer FACS Scan (Becton-Dickinson).
# To determine association rates, cells were harvested as above following serum starvation and peptide treatment, and were resuspended in 3 ml of serum-free Neurobasal (NB) medium containing […] (Invitrogen) and […] nonessential amino acids, prior to analysis on the flow cytometer. Cells were analysed for 30 seconds prior to the addition of 26 nM NGF-FITC, and then for 30 minutes in real time with an analysis rate of 200-300 events/sec.
# PC12 cells = assay: PC12 cell viability / NGF withdrawal (acid phosphatase assay); type: cell-based
# Description: To investigate the role of c29 peptide in NGF-withdrawal assays, NGF-containing medium in PC12 cultures was exchanged for NGF-free medium on day 3, and cells were treated with c29 or scrambled peptide and reduced NGF concentrations (1 ng or 10 ng/ml). Treated cells were cultured for 2 days and cell viability was determined via quantification of cytosolic acid phosphatase enzyme activity as described in (Yang et al., 1996).
# Briefly, cells were grown in 96-well plates at densities of 5000 cells per well. The culture medium in treated cell assays was removed from and each well was washed once with 200 μl phosphate buffered saline (PBS, pH 7.2). To each well, 100 μl of sodium acetate and p-nitrophenyl phosphate buffer containing 0.1 M sodium acetate (pH 5.0), 0.1% Triton X-100, and 5 mM p-nitrophenyl phosphate was added. The plates were placed in a 37° C. incubator for 30 minutes. The reaction was stopped with the addition of […] of 1 N NaOH, and colour development absorbance was assayed at 405 nm using a microplate reader (POLARstar OPTIMA, USA). […] This background value was typically 0.03-0.1 absorbance units.
# [1] = 26 nM NGF-FITC 60 minutes, c.f. p75^FL alone
sequence,measurement,setting,value
KRWNSCKQNKQGANSRPVNQTPPPEGEKL (c29- Fragment of p75ICD) [29 amino acid peptide of the p75NTR juxtamembrane Chopper domain; delivered to cells linked to PTD4 or disulfide-linked carrier],% of cell population with FITC above background,p75^FL; [1],100.5 ± 14.2%
same,Maximal fluorescence per cell of the population,p75^FL; [1],98.7 ± 4.3%
same,Mean fluorescence per FITC-positive cell,p75^FL; [1],105.2 ± 3.6%
same,Median population fluorescence,p75^FL; [1],103.8 ± 11.2%
same,half time of NGF-FITC binding,"p75^FL; 26 nM NGF-FITC, cells treated with c29",7.1 min
same,fluorescence profile of the population,"p75^FL; pre-treated with c29, NGF-FITC",did not change
same,survival rate of cells,PC12 cells; 1 ng/ml NGF after differentiation in 100 ng/ml NGF,significantly increased the survival rate
same,cell survival,PC12 cells; absence of NGF,did not affect on cell survival
same,basal PC12 cell growth and proliferation,PC12 cells; medium lacking NGF,no effect on basal PC12 cell growth and proliferation
